From patent publication US8492329B2, “Bioactive peptides and methods of using same” (Compugen Ltd., priority 2007, dated 2013)
“Also recorded” adds a separate entry of the source. No end group written: not given here.

Tests used:
[1] = target: LGR8 (RXFP2) (Homo sapiens, UniProt Q8WXD0); assay: Competition with Europium labelled INSL3 binding to HEK-293T cells expressing LGR8; design: expressed in transfected cells; details: LGR8 HEK-293T, FIG. 10; for effect on binding of Europium-INSL3: 0.01 nM-10 μM
LGR8 (RXFP2), sequence (Q8WXD0 whole entry): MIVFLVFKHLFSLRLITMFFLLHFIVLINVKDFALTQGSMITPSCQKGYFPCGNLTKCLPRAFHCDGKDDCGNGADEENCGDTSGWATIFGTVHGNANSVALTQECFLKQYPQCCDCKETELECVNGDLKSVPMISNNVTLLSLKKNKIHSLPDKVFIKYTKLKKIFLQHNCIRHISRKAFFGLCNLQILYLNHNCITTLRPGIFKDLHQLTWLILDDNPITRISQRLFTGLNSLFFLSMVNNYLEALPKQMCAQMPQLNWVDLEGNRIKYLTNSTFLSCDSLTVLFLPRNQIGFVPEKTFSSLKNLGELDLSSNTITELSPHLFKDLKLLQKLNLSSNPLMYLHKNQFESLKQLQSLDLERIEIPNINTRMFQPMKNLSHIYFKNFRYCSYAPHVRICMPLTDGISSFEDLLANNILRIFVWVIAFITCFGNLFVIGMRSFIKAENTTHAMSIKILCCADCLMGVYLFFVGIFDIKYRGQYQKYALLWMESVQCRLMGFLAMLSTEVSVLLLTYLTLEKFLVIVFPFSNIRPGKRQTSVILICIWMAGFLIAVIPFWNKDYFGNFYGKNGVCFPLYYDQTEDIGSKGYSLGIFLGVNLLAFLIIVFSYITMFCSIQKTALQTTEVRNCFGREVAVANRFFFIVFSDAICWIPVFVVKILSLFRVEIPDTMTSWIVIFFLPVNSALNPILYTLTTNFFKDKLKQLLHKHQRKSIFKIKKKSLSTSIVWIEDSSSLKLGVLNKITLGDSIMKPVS
Method: The ability of Peptides P74C13V (SEQ ID NO: 10) and P59C13V (SEQ ID NO: 6) to compete with the binding of known ligands to LGR7 or LGR8 was tested by testing the ability of P74C13V (SEQ ID NO: 10) and P59C13V (SEQ ID NO: 6) to compete with the binding of Europium labelled H2 Relaxin or INSL3 (manufactured by the H. Florey institute) to stable HEK-293T cell lines expressing LGR7 or LGR8 respectively.
HEK-293T cell lines expressing LGR8 (RXFP2) were treated with Europium labeled INSL3 (manufactured by the H. Florey institute). The cells were then treated with decimal increasing concentrations (0.01 nM, 0.1 nM, 1 nM, 10 nM, 100 nM, 1 μM, 10 μM) of un-labeled INSL3 (as a positive control) and the tested peptides P59C13V (P59) (SEQ ID NO: 6), P59C13V-Amide (P59-Amide) (SEQ ID NO: 5), P59-S-Amide (P59S) (SEQ ID NO: 1) and P74C13V (P74) (SEQ ID NO: 10). The binding results are shown as a percentage of specific binding of the radioactive test INSL3 (where 100% is the baseline radiation level). […] This means that the binding affinity of the Eur-INSL3 was increased by binding/activity of the P59C13V (P59) (SEQ ID NO: 6) peptide on the LGR8 receptor.

[2] = target: T1, LGR4 (Homo sapiens, UniProt Q9BXB1); assay: cAMP accumulation in CHO-K1 cells transiently transfected with LGR4; format: cell-based; details: 1 uM, pre-treatment with Forskolin, FIG. 3C
T1 construct: expressed in transfected cells; host or cells: CHO-K1 (transient)
Method: [The procedure below names another target; the source says it served here with some conditions changed.] (§1) LGR7 (RXFP1) or LGR8 (RXFP2) were transiently transfected into CHO-K1 cells as follows: Cells (12 million) were plated into T75 flasks on the day preceding transfection. Cells were transfected with a GPCR DNA and Gα16 using a lipid technique according to the manufacturer's recommendation. Cells were transfected for 5 hours, then re-plated into 96-well dishes (60,000 cells per well) and grown overnight. Transfected cells were plated into 24 wells of a 96-well plate. Cells were pre-treated with 0.5 mM IBMX (stimulation buffer) for 10 min at 37° C., then stimulated with either a positive control (Relaxin 2) or a candidate peptide (for Gs functional examination), followed by stimulation or a preincubation with 10 μM forskolin (for Gi functional examination). Following a 20 minutes stimulation by incubation with 1 μM of either positive control or the tested peptides, either with or without forskolin, intracellular cAMP was assayed using the Hit Hunter cAMP kit (DiscoveRx Corporation) according to the manufacturer's recommended protocol. Data was converted to nmol of cAMP by running a standard cAMP curve.

[3] = target: T2, LGR7 (RXFP1) (Homo sapiens, UniProt Q9HBX9); assay: cAMP accumulation (Hit Hunter cAMP kit) in CHO-K1 cells transiently transfected with LGR7; format: cell-based; design: expressed in transfected cells; host or cells: CHO-K1 (transient); details: for cAMP inhibition (Gi) effect: 1 uM, LGR7 CHO-K1 cells pre-treated with 10 uM Forskolin, FIG. 1; for cAMP dose response with Forskolin / Gs (cAMP increase) dose response without Forskolin: LGR7; for cAMP dose response with Forskolin: 10 uM Forskolin, 1 nM to 10 uM, FIG. 4A; for Gs (cAMP increase) dose response without Forskolin: low concentrations 3-100 nM, FIG. 4B
T2 sequence (Q9HBX9 1-757): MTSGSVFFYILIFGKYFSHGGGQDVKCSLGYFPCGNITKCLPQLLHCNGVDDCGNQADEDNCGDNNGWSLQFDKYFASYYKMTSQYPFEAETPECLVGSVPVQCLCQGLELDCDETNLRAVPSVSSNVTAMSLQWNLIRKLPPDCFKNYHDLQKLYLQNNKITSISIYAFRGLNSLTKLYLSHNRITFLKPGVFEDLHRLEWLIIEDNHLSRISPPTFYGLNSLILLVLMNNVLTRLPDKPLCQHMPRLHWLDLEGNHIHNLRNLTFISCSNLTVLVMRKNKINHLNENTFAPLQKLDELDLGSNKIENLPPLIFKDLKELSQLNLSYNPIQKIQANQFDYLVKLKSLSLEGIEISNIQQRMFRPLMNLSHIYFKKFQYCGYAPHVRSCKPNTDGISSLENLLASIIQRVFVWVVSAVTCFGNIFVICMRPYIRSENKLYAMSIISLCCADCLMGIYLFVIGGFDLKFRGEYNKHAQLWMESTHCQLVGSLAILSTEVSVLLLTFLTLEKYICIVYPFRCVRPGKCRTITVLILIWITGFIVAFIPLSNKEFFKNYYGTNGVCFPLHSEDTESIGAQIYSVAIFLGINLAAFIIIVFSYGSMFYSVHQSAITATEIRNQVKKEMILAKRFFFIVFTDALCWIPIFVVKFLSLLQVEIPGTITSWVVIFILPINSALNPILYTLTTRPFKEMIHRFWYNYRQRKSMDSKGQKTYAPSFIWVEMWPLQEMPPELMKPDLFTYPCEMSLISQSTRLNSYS
Method: The ability of Peptides to affect cAMP concentration was examined in CHO-K1 cells transiently transfected with LGR7 (RXFP1) or LGR8 (RXFP2). The experiment measured cAMP concentration in response to the addition of the peptides.
as §1
Relaxin was used as a positive control. cAMP level was elevated by pre-treatment with forskolin.
The transfected CHO-K1 cells were treated with 10 uM of Forskolin (Applied cell sciences (ACS)) for 10 minutes and then challenged with 1 uM of H2 Relaxin (ACS) (as a positive control), 1 uM of Peptide P59C13V (P59) (SEQ ID NO: 6), and Peptide P74C13V (P74) (SEQ ID NO: 10).
CHO-K1 cells transiently transfected with LGR7 (RXFP1) were treated with 10 uM of Forskolin for 10 minutes and then challenged with either H2 Relaxin (as a positive control), P59C13V (P59) (SEQ ID NO: 6) or P74C13V (P74) (SEQ ID NO: 10) at increasing concentrations, from 1 nm to 10 uM (FIG. 4A) and from 3 nM to 100 nM (FIG. 4B). cAMP concentrations were determined at each point, as described above with (FIG. 4A) or without (FIG. 4B) the presence of Forskolin.

| Substance | effect on binding of Europium-INSL3 [1] | cAMP inhibition (Gi) effect [3] | cAMP dose response with Forskolin [3] | Gs (cAMP increase) dose response without Forskolin [3] | specific binding of Europium-INSL3 ([1]; at 1 nM and higher concentrations, 100% is baseline) [%] | Gi effect (decrease in cAMP accumulation) [2] |
| --- | --- | --- | --- | --- | --- | --- |
| GQKGQVGPPGAAVRRAYAAFSV-Amide (GQKGQVGPPGAAVRRAYAAFSV-NH2) [P59C13V-Amide] | less apparent | – | – | – | – | – |
| GQKGQVGPPGAAVRRAYAAFSV [Peptide P59C13V] | positive cooperative or allosteric effect | clear cAMP inhibition (Gi) effect | bell-shaped curve | dose dependent increase in cAMP | ~125 | slight yet statistically significant Gi effect; also recorded: slight Gi activation |
| AYAAFSV-Amide (AYAAFSV-NH2) [Peptide P59-S-Amide] | less apparent | – | – | – | – | – |

Continued, in another order:

| effect on binding of Europium-INSL3 [1] | cAMP inhibition (Gi) effect [3] | cAMP dose response with Forskolin [3] | Gs (cAMP increase) dose response without Forskolin [3] | specific binding of Europium-INSL3 ([1]; at 1 nM and higher concentrations, 100% is baseline) [%] | Substance | Gi effect (decrease in cAMP accumulation) [2] |
| --- | --- | --- | --- | --- | --- | --- |
| less apparent | clear cAMP inhibition (Gi) effect | no significant effect | – | – | GQKGQVGPPGAAVRRAYAAFSVGRRAYAAFSV-OH [Peptide P74C13V] | slight yet statistically significant Gi effect; also recorded: slight Gi activation |
| – | affected only the LGR7 (RXFP1) receptor | dose dependent decrease (Gi) effect | dose dependent increase in cAMP | – | H2 Relaxin: H2 Relaxin (ACS), positive control, known ligand of LGR7 (RXFP1) [reference compound] | – |
